{"source": "patent US20060281901", "target": "ubiquitin-amyloid-β peptide fusion protein (H6Ub-Aβ42)"}
{"protein": "yeast ubiquitin hydrolase-1 (YUH-1) (protein) MSGENRAVVPIESNPEVFTNFAHKLGLKNEWAYFDIYSLTEPELLAFLPRPVKAIVLLFPINEDRKSSTSQQITSSYDVIWFKQSVKNACGLYAILHSLSNNQSLLEPGSDLDNFLKSQSDTSSSKNRFDDVTTDQFVLNVIKENVQTFSTGQSEAPEATADTNLHYITYVEENGGIFELDGRNLSGPLYLGKSDPTATDLIEQELVRVRVASYMENANEEDVLNFAMLGLGPNWE", "values": [{"measurement": "electrophoresis with Coomassie staining of the enzyme reactant (cleavage of the fusion protein by ubiquitin hydrolase)", "result": "the binding site between ubiquitin and amyloid-β peptide in the fusion protein is precisely cut by the action of ubiquitin hydrolase and the fusion protein is separated into a ubiquitin fragment and an amyloid-β peptide fragment"}]}
